B1: TPR t1 (parent)
chain: GACCAAUCUGCCCUCAGAGCUCGAGAACAUCUUCGGAUGCAGAGGAGGCAGGCUUCGGUGGCGCGAUAGCGCCAACGUCCUCAACCUCCAAUGCAUCCCACCACAUGAUGAUGCCUGAAGAGCCUUGGUUUUUUG

This data set covers variants of B1. In words: polymerase ribozyme fitness, log enrichment relative to wild type (log ratio); higher = more active; in vitro selection for triplet polymerase activity. A digest of the protocol:
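PCR was used to build mutant libraries for each subunit of a heterodimeric triplet polymerase ribozyme, which were then transcribed. A single in vitro selection round, in triplicate, used a frozen incubation at −7 °C and recovered extended constructs by gel excision, streptavidin beads and RT-PCR. Fitness is the logarithm of genotype enrichment relative to wild-type enrichment, averaged over replicates with inverse-variance weights. The logarithm is base 2, and after Illumina sequencing only genotypes with ≥10 input reads and ≥1 read per output were kept.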
Consider GACCAAUCUGCCCUCAGAGCUCGAGAAUAUCUUCGGAUCCAGAGGAGGCAGGUUUCGGUGUCGCGAUAGCGCCAACGUCCUCAACCUCCAAUGCAUCCCACCACAUGAUGAUGCCUGAAGAGCCUUGGUUUUUUG [C28U G39C C53U G61U], for which the “polymerase ribozyme fitness (log ratio)” value was -2.31.

Turning to GACCAAUCUGCCCUCAGAGCUCGAGAAUAUCUUCGGAUGCAGAGAAGGCAGGCUUCGGUGGCCCGAUAGCGCCAACGUCCUCAACCUCCAAUGCAUCCCACCACAUGAUGAUGCCUGAAGAGCCUUGGUUUUUUG [C28U G45A G63C], the “polymerase ribozyme fitness (log ratio)” value was -3.75.

With GACCAAUCUGCCCUCAGAGCUCGAGAAUAUCUUCGGAUGCAGAGGAGGCAGGCUUCGGUGGCGCGAUAGCACCAACGUCCUCAACCUCCAAUGCAUCCCACCACAUGAUGAUGCCUGAAGAGCCUUGGUUUUUUG [C28U G71A], the “polymerase ribozyme fitness (log ratio)” value was -2.58. GACCAAUCUGCCCUCAGAGCUCGAGAAUAUCUUCGGAUGCAGAGGAGGCAGGCUUCGGUGGCGCGAUAGCCCCAACGUCCUCAACCUCCAAUGCAUCCCACCACAUGAUGAUGCCUGAAGAGCCUUGGUUUUUUG [C28U G71C]: the “polymerase ribozyme fitness (log ratio)” value is -2.78.

Take GACCAAUCUGCCCUCAGAGCUCGAGAAUAUCUUCGGAUGCAGAGAAGGCAGACUUCGGUGGCGCGAUAGCGCCAACGUCCUCAACCUCCAAUGCAUCCCACCACAUGAUGAUGCCCGAAGAGCCUUGGUUUUUUG [C28U G45A G52A U116C]: the “polymerase ribozyme fitness (log ratio)” value is -4.51. In the case of GACCAAUCUGCCCUCAGAGCUCGAGAAUAUCUUCGGAUGCAGAGGAGGCAGCCUUCGGUGGCGCGAUAGCGCCAACGUCCUCAACCUCCAAUGCAUCCCACCACAAGAUGAAGCCUGAAGAGCCUUGGUUUUUUG [C28U G52C U106A U112A], the “polymerase ribozyme fitness (log ratio)” value was -1.6. In the case of GACCAAUCUGCCCUCAGAGCUCGAGAAUAUCUUCGGAUGCAGAGGAGGCAGGCUUCGGUGGCGCGAUAACGCCAACGUCCUCAACCUCCAAUGCAUCCCACCACAUGAUGAUGCCUGAAGAGCCUUGGUUUUUUG [C28U G69A], the “polymerase ribozyme fitness (log ratio)” value was -4.67. Turning to GACCAAUCUGCCCUCAGAGCUCGAGAAUAUCUUCGGAUGCAGAGGAGGCAGGCUUCGGUGGCGCGAUAGCGCCAACGUCCUCAACCUCCAAUGCAUCCCACCACAUGAUGAUGCCUCAAGAGCCUUGGUUUUUUG [C28U G117C], the “polymerase ribozyme fitness (log ratio)” value was -6. With GACCAAUCUGCCCUCAGAGCUCGAGAAUAUCUUCGGAUGCAGAGGAGGCAGGCUUCGGUGGCGCGAUAGCGCCAACGUCCUCAACCUCCAAUGCAUCCCACCACAUGAUGAUGCCUUAAGAGCCUUGGUUUUUUG [C28U G117U] the figure was -3.99. As for GACCAAUCUGCCCUCAGAGCUCGAGAAUAUCUUCGGAUGCAGAGGAGGCAGACUUCGGUGGCGCGAUAGCGCCAACGUCCUCAACCUCCAAUGCAUCCCACCACAUGAUGAUGCCUGAAGAGCCUUGGUUUUUUG [C28U G52A], the “polymerase ribozyme fitness (log ratio)” value is -2.18. Consider GACCAAUCUGCCCUCAGAGCUCGAGAAUAUCUUCGGAUGCAGAGGAGGCAGGCUUCGGUGGCGCGAUAGCACCAACGUCCUCAACCUCAAAUGCAUCCCACCACAUGAUGAUGCCUGAAGAGGCUUGGUCUUUUG [C28U G71A C89A C123G U130C], for which the “polymerase ribozyme fitness (log ratio)” value was -3.76. With GACCAAUCUGCCCUCAGAGCUCGAGAAUAUCUUCGGAUGCAGAUGAGGCAGGCUUAGGUGGCGCGAUAGCGCCAACGUCCUCAACCUCCAAUGCAUCCCACCACAUGAUGAUGCCUGAAGAGCCUUGGUUUUUUG [C28U G44U C56A], the “polymerase ribozyme fitness (log ratio)” value was -4.15. As to GACCAAUCUGCCCUCAGAGCUCGAGAAUAUCUUCGGAUGCAGAGGAGGCAGGCUUCGGUGGCGCGAUAGCGCCAACGUCCUCAACCUCCAAUGCAUCCCACCACAUGAUGAUCCCUGAAGAGGCUUGGUUUUUUG [C28U G113C C123G], the “polymerase ribozyme fitness (log ratio)” value is -3.9. In the case of GACCAAUCUGCCCUCAGAGCUCGAGAAUAUCUUCGGAUGCAGAGGAGGCAGGCUUCGGUGGCGCGAUAGCGCCAACGUCCUCAACCUCCAAUGCAUCCCACCACAUGAUGAUUCCUGAAGAGCCUUGGUUUUUUG [C28U G113U], the “polymerase ribozyme fitness (log ratio)” value is -4.02.

Take GACCAAUCUGCCCUCAGAGCUCGAGAAUAUCUUCGGAUACAGAGGAGGCAGGCCUCGGUGGCGCGAUAGCGCCAACGUACUCAACCUCCAAUGCAUCCCACCACAUGAUGAUGCCUGAAGAGCCUUGGUUUUUUG [C28U G39A U54C C79A]: the “polymerase ribozyme fitness (log ratio)” value was -4.8.

Consider GACCAAUCUGCCCUCAGAGCUCGAGAAUAUCUUCGGAUGCAGAGGAUGCAGGCUUUGGUGGCGCGAUAGCGCCAACGUCCUCAACCUCCAAUGCAUCCCACCACAUGAUGAUGCCUGAAGAGCCUUGGUUUUUUG [C28U G47U C56U], for which the “polymerase ribozyme fitness (log ratio)” value was -3.24. With GACCAAUCUGCCCUCAGAGCUCGAGAAUAUCUUCGGAUGCAGAGGAGGCAGGCUUCGGUGGCGCGAUAGCGCCAACGUCCUCAACCUCCAACGCAUCCCACCACAUGAUGAUGCCUGAAGAGCCUUGGUUUUUUG [C28U U92C], the “polymerase ribozyme fitness (log ratio)” value is -3.43. In the case of GACCAAUCUGCCCUCAGAGCUCGAGAAUAUCUUCGGAUGCAGAGAAGGCAGGCUUCGGUGGCUCGAUAGCGCCAACGCCCUCAACCUCCAAUGCAUCCCACCACAUGAUGAUGCCUGAAGAGCCUUGGUUUUUUG [C28U G45A G63U U78C], the “polymerase ribozyme fitness (log ratio)” value was -5.

Turning to GACCAAUCUGCCCUCAGAGCUCGAGAAUAUCUUCGGAUGCAGAGGAGGCAGCCUUCGGUGACGCGAUAGCGCCAACGUCCUCAACCUCCAAUGCAUCCCACCACAAGAUGAAGCCUGAAGAGCCUUGGUUUUUUG [C28U G52C G61A U106A U112A], the “polymerase ribozyme fitness (log ratio)” value was -1.95. Under GACCAAUCUGCCCUCAGAGCUCGAGAAUAUCUUCGGAUGCAGAGGAGGCAGGCUUCGGUGGCGCGAUAGCGCCAACGUCCUCAACCUCCAAUGCAUCCCACCACAUGAUGAUGCCUGAACAGCCUUGGUUUUUUG [C28U G120C] stands -1.37.

In the case of GACCAAUCUGCCCUCAGAGCUCGAGAAUAUCUUCGGAUGCAGAGGAGGCAGGCUUCGGUGGCGCGAUAGCGCCAACGUCCUCAACCUCCAAUGCAUCCCACCACAUGAUGAUGCCUGAAUAGCCUUGGUUUUUUG [C28U G120U], the “polymerase ribozyme fitness (log ratio)” value is -1.78.
